Test results reported in patent US20260125454A1 (SHANGHAI JUNSHI BIOSCIENCES, published 2026).

B1: hu178 (antibody, V domains shown)
VH: QVQLVQSGAEVKKPGASVKVSCKASGYTFTDYNMHWVRQAPGQGLEWMGYISPYNGGTAYNQKFKFRVTLTVDTSSSTAYMELSRLRSDDTVVYYCAREGLGGYWGQGTLVTVSS
VL: DIVLTQSPDSLAVSLGERATINCQASQNIDGNTYMNWYQQKPGQPPKVLIYSIFNLESGVPDRFSGSGSGTDFTLTISSLQAEDVAVYYCQQSNDYPYTFGQGTKLEIK
notes: 3E5 HC-3/2B8 LC2-1
B2: hu210 (antibody, V domains shown)
VH: QVQLVQSGAEVKKPGASVKVSCKASGYTFTDYNMHWVRQAPGQGLEWMGYIYPYNGHTVYNQKFRNRVTLTVDTSSSTAYMELRSLRSDDTAVYYCAREGLGGYWGQGTLVTVSS
VL: DIVLTQSPASLAVSPGQRATITCKASQNIDYDGYAYLNWYQQKPGQPPKVLIYSVFNLESGVPARFSGSGSGTDFTLTINPVEADDTANYYCQQSNEFPYTFGQGTKLEIK
notes: 3H10 HC-2/1A2 LC2-2
B3: hu1 (antibody, V domains shown)
VH: QVQLVQSGAEVKKPGASVKVSCKASGYTFTDYNMHWVRQAPGQGLEWMGYIFPYNGVAVYNRKFRSRVTLTIDTSSSTAYMELRSLRSDDTAVYYCAREGLGGYWGQGTLVTVSS
VL: DIVLTQSPASLAVSPGQRATITCKASQNIDYDGYAYLNWYQQKPGQPPKVLIYSVFNLESGVPARFSGSGSGTDFTLTINPVEANDTANYYCQQSNEFPYTFGQGTKLEIK
notes: 1B2 HC-1/1A2 LC2-1
B4: hu15 (antibody, V domains shown)
VH: QVQLVQSGAEVKKPGASVKVSCKASGYTFTDYNMHWVRQAPGQRLEWMGYIFPYNGVAVYNRKFRSRVTLTVDTSSSTAYMELSSLRSEDTAVYYCAREGLGGYWGQGTLVTVSS
VL: DIVLTQSPASLAVSPGQRATITCKASQNIDYDGYAYLNWYQQKPGQPPKVLIYSVFNLESGVPARFSGSGSGTDFTLTINPVEADDTANYYCQQSNEFPYTFGQGTKLEIK
notes: 1B2 HC-2/1A2 LC2-2
B5: hu79 (antibody, V domains shown)
VH: QVQLVQSGAEVKKPGASVKVSCKASGYTFIDFNMHWVRQAPGQRLEWMGYIYPYNADVVYNQDFTNRVTLTVDTSSSTAYMELSSLRSEDTAVYYCAREGLGGYWGQGTLVTVSS
VL: DIVLTQSPASLAVSPGQRATITCKASQNIDYDGYAYLNWYQQKPGQPPKVLIYSVFNLESGVPARFSGSGSGTDFTLTINPVEANDTANYYCQQSNEFPYTFGQGTKLEIK
notes: 1F5 HC-5/1A2 LC2-1
B6: hu2 (antibody, V domains shown)
VH: QVQLVQSGAEVKKPGASVKVSCKASGYTFTDYNMHWVRQAPGQGLEWMGYIFPYNGVAVYNRKFRSRVTLTIDTSSSTAYMELRSLRSDDTAVYYCAREGLGGYWGQGTLVTVSS
VL: DIVLTQSPASLAVSPGQRATITCKASQNIDYDGYAYLNWYQQKPGQPPKVLIYSVFNLESGVPARFSGSGSGTDFTLTINPVEADDTANYYCQQSNEFPYTFGQGTKLEIK
notes: 1B2 HC-1/1A2 LC2-2
B7: hu40 (antibody, V domains shown)
VH: QVQLVQSGAEVKKPGASVKVSCKASGYTFTDFNMHWVRQAPGQRLEWMGYIYPYNGDVVYNQNFTNRVTLTVDTSSSTAYMELSSLRSEDTAVYYCAREGLGGYWGQGTLVTVSS
VL: DIVLTQSPASLAVSPGQRATITCKASQNIDYDGYAYLNWYQQKPGQPPKVLIYSVFNLESGVPARFSGSGSGTDFTLTINPVEANDTANYYCQQSNEFPYTFGQGTKLEIK
notes: 1F5 HC-2/1A2 LC2-1
B8: hu7 (antibody, V domains shown)
VH: QVQLVQSGAEVKKPGASVKVSCKASGYTFTDYNMHWVRQAPGQGLEWMGYIFPYNGVAVYNRKFRSRVTLTIDTSSSTAYMELRSLRSDDTAVYYCAREGLGGYWGQGTLVTVSS
VL: DIVLTQSPASLAVSPGQRATITCKASQNIDFDGYAYMNWYQQKPGQPPKVLIYSVFNLESGVPARFSGSGSGTDFTLTINPVEADDTANYYCQQSHEVPYTFGQGTKLEIK
notes: 1B2 HC-1/1F5 LC1-3
B9: hu46 (antibody, V domains shown)
VH: QVQLVQSGAEVKKPGASVKVSCKASGYTFTDFNMHWVRQAPGQRLEWMGYIYPYNGDVVYNQNFTNRVTLTVDTSSSTAYMELSSLRSEDTAVYYCAREGLGGYWGQGTLVTVSS
VL: DIVLTQSPASLAVSPGQRATITCKASQNIDFDGYAYMNWYQQKPGQPPKVLIYSVFNLESGVPARFSGSGSGTDFTLTINPVEADDTANYYCQQSHEVPYTFGQGTKLEIK
notes: 1F5 HC-2/1F5 LC1-3
B10: hu53 (antibody, V domains shown)
VH: QVQLVQSGAEVKKPGASVKVSCKASGYTFTDFNMHWVRQAPGQGLEWMGYIYPYNGDVVYNQNFTNRVTLTVDTSSSTAYMELRSLRSDDTAVYYCAREGLGGYWGQGTLVTVSS
VL: DIVLTQSPASLAVSPGQRATITCKASQNIDYDGYAYLNWYQQKPGQPPKVLIYSVFNLESGVPARFSGSGSGTDFTLTINPVEANDTANYYCQQSNEFPYTFGQGTKLEIK
notes: 1F5 HC-3/1A2 LC2-1
B11: hu59 (antibody, V domains shown)
VH: QVQLVQSGAEVKKPGASVKVSCKASGYTFTDFNMHWVRQAPGQGLEWMGYIYPYNGDVVYNQNFTNRVTLTVDTSSSTAYMELRSLRSDDTAVYYCAREGLGGYWGQGTLVTVSS
VL: DIVLTQSPASLAVSPGQRATITCKASQNIDFDGYAYMNWYQQKPGQPPKVLIYSVFNLESGVPARFSGSGSGTDFTLTINPVEADDTANYYCQQSHEVPYTFGQGTKLEIK
notes: 1F5 HC-3/1F5 LC1-3
B12: hu14 (antibody, V domains shown)
VH: QVQLVQSGAEVKKPGASVKVSCKASGYTFTDYNMHWVRQAPGQRLEWMGYIFPYNGVAVYNRKFRSRVTLTVDTSSSTAYMELSSLRSEDTAVYYCAREGLGGYWGQGTLVTVSS
VL: DIVLTQSPASLAVSPGQRATITCKASQNIDYDGYAYLNWYQQKPGQPPKVLIYSVFNLESGVPARFSGSGSGTDFTLTINPVEANDTANYYCQQSNEFPYTFGQGTKLEIK
notes: 1B2 HC-2/1A2 LC2-1
B13: hu20 (antibody, V domains shown)
VH: QVQLVQSGAEVKKPGASVKVSCKASGYTFTDYNMHWVRQAPGQRLEWMGYIFPYNGVAVYNRKFRSRVTLTVDTSSSTAYMELSSLRSEDTAVYYCAREGLGGYWGQGTLVTVSS
VL: DIVLTQSPASLAVSPGQRATITCKASQNIDFDGYAYMNWYQQKPGQPPKVLIYSVFNLESGVPARFSGSGSGTDFTLTINPVEADDTANYYCQQSHEVPYTFGQGTKLEIK
notes: 1B2 HC-2/1F5 LC1-3
B14: hu27 (antibody, V domains shown)
VH: QVQLVQSGAEVKKPGASVKVSCKASGYTFIDFNMHWVRQAPGQRLEWMGYIYPYNGDVVYNQNFTNRVTLTVDTSSSTAYMELSSLRSEDTAVYYCAREGLGGYWGQGTLVTVSS
VL: DIVLTQSPASLAVSPGQRATITCKASQNIDYDGYAYLNWYQQKPGQPPKVLIYSVFNLESGVPARFSGSGSGTDFTLTINPVEANDTANYYCQQSNEFPYTFGQGTKLEIK
notes: 1F5 HC-1/1A2 LC2-1
B15: hu28 (antibody, V domains shown)
VH: QVQLVQSGAEVKKPGASVKVSCKASGYTFIDFNMHWVRQAPGQRLEWMGYIYPYNGDVVYNQNFTNRVTLTVDTSSSTAYMELSSLRSEDTAVYYCAREGLGGYWGQGTLVTVSS
VL: DIVLTQSPASLAVSPGQRATITCKASQNIDYDGYAYLNWYQQKPGQPPKVLIYSVFNLESGVPARFSGSGSGTDFTLTINPVEADDTANYYCQQSNEFPYTFGQGTKLEIK
notes: 1F5 HC-1/1A2 LC2-2
B16: hu54 (antibody, V domains shown)
VH: QVQLVQSGAEVKKPGASVKVSCKASGYTFTDFNMHWVRQAPGQGLEWMGYIYPYNGDVVYNQNFTNRVTLTVDTSSSTAYMELRSLRSDDTAVYYCAREGLGGYWGQGTLVTVSS
VL: DIVLTQSPASLAVSPGQRATITCKASQNIDYDGYAYLNWYQQKPGQPPKVLIYSVFNLESGVPARFSGSGSGTDFTLTINPVEADDTANYYCQQSNEFPYTFGQGTKLEIK
notes: 1F5 HC-3/1A2 LC2-2
B17: hu191 (antibody, V domains shown)
VH: QVQLVQSGAEVKKPGASVKVSCKTSGYTFTDYNMHWVRQAPGQRLEWMGYISPYNAGTAYNQKFKFRVTLTVDTSSSTAYMELSSLRSEDTAVYYCAREGLGGYWGQGTLVTVSS
VL: DIVLTQSPDSLAVSLGERATINCQASQNIDGNTYMNWYQQKPGQPPKVLIYSIFNLESGVPDRFSGSGSGTDFTLTISSLQAEDVAVYYCQQSNDYPYTFGQGTKLEIK
notes: 3E5 HC-4/2B8 LC2-1
B18: hu204 (antibody, V domains shown)
VH: QVQLVQSGAEVKKPGASVKVSCKASGYTFTDYNMHWVRQAPGQGLEWMGYIYPYNGHTVYNQKFRNRVTMTVDTSSSTAYMELRSLRSDDTAVYYCAKEGLGGYWGQGTLVTVSS
VL: DIVLTQSPDSLAVSLGERATINCQASQNIDGNTYMNWYQQKPGQPPKVLIYSIFNLESGVPDRFSGSGSGTDFTLTISSLQAEDVAVYYCQQSNDYPYTFGQGTKLEIK
notes: 3H10 HC-1/2B8 LC2-1
B19: hu41 (antibody, V domains shown)
VH: QVQLVQSGAEVKKPGASVKVSCKASGYTFTDFNMHWVRQAPGQRLEWMGYIYPYNGDVVYNQNFTNRVTLTVDTSSSTAYMELSSLRSEDTAVYYCAREGLGGYWGQGTLVTVSS
VL: DIVLTQSPASLAVSPGQRATITCKASQNIDYDGYAYLNWYQQKPGQPPKVLIYSVFNLESGVPARFSGSGSGTDFTLTINPVEADDTANYYCQQSNEFPYTFGQGTKLEIK
notes: 1F5 HC-2/1A2 LC2-2

Biological target: T1, Biotin-huCGRPaSA (human, not fully specified; biotin (position not given))
T1 construct: exact construct ('aSA') not explained; also called Biotin CGRPaSA; full-length (1-37) CGRP
T1 peptide: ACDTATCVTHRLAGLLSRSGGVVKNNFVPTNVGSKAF
Test: ELISA, supernatant; relative to chimeric C245
Protocol: Biotin CGRPaSA was diluted with PBS (Hyclone) to 1.0 μg/mL, and the dilution was added to a microplate at 100 μL/well. The plate was let stand in an incubator at 37° C. and coated for 90 min and then washed, and 2% BSA was added to the plate at 200 μL/well. The plate was incubated in an incubator at 37° C. for 90 min and then washed. The humanized antibodies in Table 8 and the reference antibody (chimeric antibody C245) were diluted to 1000 ng/mL with a diluent (2% BSA) with a dilution factor of not more than 10. Then, the chimeric antibodies and the reference antibody were serially 2.5-fold diluted on a sample dilution plate. All the chimeric antibody solutions and the reference antibody solution were added into plates at 100 μL/well, and the plates were incubated in a thermostat incubator at 37° C. for 60 min and washed. An HRP-conjugated goat anti-human antibody IgG (manufacturer: Sigma, Cat. No. A0170; Fc specificity) was diluted 5000-fold with 2% BSA and added into the plates at 100 μL/well, and the plates were incubated in the thermostat incubator at 37° C. for 60 min and washed. Chromogenic reagent TMB was carefully added at 100 μL/well to avoid bubbles, and the system was incubated at 37° C. for 15 min away from light for chromogenic reaction. Finally, a 2 M hydrochloric acid solution was added at 100 μL/well to stop the reaction while avoiding bubbles, and the plates were read on a microplate reader within 10 min (wavelength: 450/620 nm).
For B1, the “Relative binding activity, %” value was 65%.
For B2, the “Relative binding activity, %” value was 73%.
With B3 the “Relative binding activity, %” value was 58%.
With B4 the “Relative binding activity, %” value was 44%.
B5 was tested, and the “Relative binding activity, %” value was 80%.
In the case of B6, the “Relative binding activity, %” value is reported as 64%.
B7 was tested, and the “Relative binding activity, %” value was 49%.
With B8 the “Relative binding activity, %” value was 80%.
In the case of B9, the “Relative binding activity, %” value is reported as 25%.
With B10 the “Relative binding activity, %” value was 13%.
B11 was tested, and the “Relative binding activity, %” value was 70%.
In the case of B12, the “Relative binding activity, %” value is reported as 32%.
For B13, the “Relative binding activity, %” value was 40%.
B14 was tested, and the “Relative binding activity, %” value was 28%.
B15 was tested, and the “Relative binding activity, %” value was 71%.
With B16 the “Relative binding activity, %” value was 22%.
In the case of B17, the “Relative binding activity, %” value is reported as 68%.
In the case of B18, the “Relative binding activity, %” value is reported as 68%.
For B19, the “Relative binding activity, %” value was 61%.
